# Experimental data reported in ChEMBL document CHEMBL3525919, “Potent inhibition of human sulfotransferase 1A1 by 17α-ethinylestradiol: role of 3'-phosphoadenosine 5'-phosphosulfate binding and structural rearrangements in regulating inhibition and activity” (Drug Metab Dispos, 2012).
# B1: Sulfotransferase 1E1 (Homo sapiens) (protein)
# chain: MNSELDYYEKFEEVHGILMYKDFVKYWDNVEAFQARPDDLVIATYPKSGTTWVSEIVYMIYKEGDVEKCKEDVIFNRIPFLECRKENLMNGVKQLDEMNSPRIVKTHLPPELLPASFWEKDCKIIYLCRNAKDVAVSFYYFFLMVAGHPNPGSFPEFVEKFMQGQVPYGSWYKHVKSWWEKGKSPRVLFLFYEDLKEDIRKEVIKLIHFLERKPSEELVDRIIHHTSFQEMKNNPSTNYTTLPDEIMNQKLSPFMRKGITGDWKNHFTVALNEKFDKHYEQQMKESTLKFRTEI
# B2: Sulfotransferase 1A1 (Homo sapiens) (protein)
# chain: MELIQDTSRPPLEYVKGVPLIKYFAEALGPLQSFQARPDDLLISTYPKSGTTWVSQILDMIYQGGDLEKCHRAPIFMRVPFLEFKAPGIPSGMETLKDTPAPRLLKTHLPLALLPQTLLDQKVKVVYVARNAKDVAVSYYHFYHMAKVHPEPGTWDSFLEKFMVGEVSYGSWYQHVQEWWELSRTHPVLYLFYEDMKENPKREIQKILEFVGRSLPEETVDFVVQHTSFKEMKKNPMTNYTTVPQEFMDHSISPFMRKGMAGDWKTTFTVAQNERFDADYAEKMAGCSLSFRSEL
# Legend:
# [1] = substrate: C[C@]12CC[C@@H]3c4ccc(O)cc4CC[C@H]3[C@@H]1CC[C@@H]2O; experiment: Activity of SULT1E1 (unknown origin); format: ADME, Homo sapiens
# [2] = substrate: C[C@]12CC[C@@H]3c4ccc(O)cc4CC[C@H]3[C@@H]1CC[C@@H]2O; experiment: Activity of human SULT1A1 expressed in Escherichia coli at 20 uM by Michaelis-Menten equation analysis in presence of PAPS; format: ADME
# [3] = substrate: C#C[C@]1(O)CC[C@H]2[C@@H]3CCc4cc(O)ccc4[C@H]3CC[C@@]21C; experiment: Activity of human SULT1A1 expressed in Escherichia coli at 6 uM by Michaelis-Menten equation analysis in presence of PAPS; format: ADME
Protein,Km [1],Km [2],Km [3]
B1,0.004 µM,–,–
B2,–,0.36 µM,0.45 µM
